IntAct's records for PubMed 15086341

B1: Lysine-specific demethylase hairless (Mus musculus), Q61645 (parent)
chain: MESMPSFLKDTPAWEKTAPVNGIVGQEPGTSPQDGLRHGALCLGEPAPFWRGVLSTPDSWLPPGFLQGPKDTLSLVEGEGPRNGERKGSWLGGKEGLRWKEAMLAHPLAFCGPACPPRYGPLIPEHSGGHPKSDPVAFRPLHCPFLLETKILERAPFWVPTCLPPYLMSSLPPERPYDWPLAPNPWVYSGSQPKVPSAFGLGSKGFYHKDPNILRPAKEPLAESGMLGLAPGGHLQQACESEGPSLHQRDGETGAGRQQNLCPVFLGYPDTVPRAPWPSCPPGLVHSLGNIWAGPGSNSLGYQLGPPATPRCPSPGPPTPPGGCCSSHLPAREGDLGPCRKCQDSPEGGSSGPGESSEERNKADSRACPPSHHTKLKKTWLTRHSEQFECPGGCSGKEESPATGLRALKRAGSPEVQGASRGPAPKRPSHPFPGTGRQGARAWQETPETIIGSKAEAEQQEEQRGPRDGRIRLQESRLVDTSCQHHLAGVTQCQSCVQAAGEVGVLTGHSQKSRRSPLEEKQLEEEDSSATSEEGGGGPGPEASLNKGLAKHLLSGLGDRLCRLLRKEREALAWAQREGQGPAMTEDSPGIPHCCSRCHHGLFNTHWRCSHCSHRLCVACGRIAGAGKNREKTGSQEQHTDDCAQEAGHAACSLILTQFVSSQALAELSTVMHQVWAKFDIRGHCFCQVDARVWAPGDGGQQKEPTEKTPPTPQPSCNGDSNRTKDIKEETPDSTESPAEDGAGRSPLPCPSLCELLASTAVKLCLGHDRIHMAFAPVTPALPSDDRITNILDSIIAQVVERKIQEKALGPGLRAGSGLRKGLSLPLSPVRTRLSPPGALLWLQEPRPKHGFHLFQEHWRQGQPVLVSGIQKTLRLSLWGMEALGTLGGQVQTLTALGPPQPTNLDSTAFWEGFSHPETRPKLDEGSVLLLHRTLGDKDASRVQNLASSLPLPEYCAHQGKLNLASYLPLGLTLHPLEPQLWAAYGVNSHRGHLGTKNLCVEVSDLISILVHAEAQLPPWYRAQKDFLSGLDGEGLWSPGSQTSTVWHVFRAQDAQRIRRFLQMVCPAGAGTLEPGAPGSCYLDAGLRRRLREEWGVSCWTLLQAPGEAVLVPAGAPHQVQGLVSTISVTQHFLSPETSALSAQLYHQGASLPPDHRMLYAQMDRAVFQAVKAAVGALQEAK

Variants of: B1
Conditions: with Thrb

effect of a mutation on the interaction | Variant
with no effect | D1005N
